Laboratory results as given in patent US20250304666A1 (ALCHEMAB THERAPEUTICS, published 2025).

T1: non-reduced CFHR3
T1 construct: also called CFHR3 (NON-REDUCED)
T1 chain: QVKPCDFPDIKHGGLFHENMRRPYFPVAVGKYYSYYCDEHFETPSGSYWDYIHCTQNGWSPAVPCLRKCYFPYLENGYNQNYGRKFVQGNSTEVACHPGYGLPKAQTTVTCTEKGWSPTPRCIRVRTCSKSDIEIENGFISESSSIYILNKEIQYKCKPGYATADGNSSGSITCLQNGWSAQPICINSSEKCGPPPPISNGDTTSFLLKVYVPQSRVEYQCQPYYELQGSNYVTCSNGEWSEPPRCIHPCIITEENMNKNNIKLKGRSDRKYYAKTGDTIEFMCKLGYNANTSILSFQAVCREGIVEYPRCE

T2: non-reduced CFH
T2 construct: also called CFH (NON-REDUCED)
T2 chain: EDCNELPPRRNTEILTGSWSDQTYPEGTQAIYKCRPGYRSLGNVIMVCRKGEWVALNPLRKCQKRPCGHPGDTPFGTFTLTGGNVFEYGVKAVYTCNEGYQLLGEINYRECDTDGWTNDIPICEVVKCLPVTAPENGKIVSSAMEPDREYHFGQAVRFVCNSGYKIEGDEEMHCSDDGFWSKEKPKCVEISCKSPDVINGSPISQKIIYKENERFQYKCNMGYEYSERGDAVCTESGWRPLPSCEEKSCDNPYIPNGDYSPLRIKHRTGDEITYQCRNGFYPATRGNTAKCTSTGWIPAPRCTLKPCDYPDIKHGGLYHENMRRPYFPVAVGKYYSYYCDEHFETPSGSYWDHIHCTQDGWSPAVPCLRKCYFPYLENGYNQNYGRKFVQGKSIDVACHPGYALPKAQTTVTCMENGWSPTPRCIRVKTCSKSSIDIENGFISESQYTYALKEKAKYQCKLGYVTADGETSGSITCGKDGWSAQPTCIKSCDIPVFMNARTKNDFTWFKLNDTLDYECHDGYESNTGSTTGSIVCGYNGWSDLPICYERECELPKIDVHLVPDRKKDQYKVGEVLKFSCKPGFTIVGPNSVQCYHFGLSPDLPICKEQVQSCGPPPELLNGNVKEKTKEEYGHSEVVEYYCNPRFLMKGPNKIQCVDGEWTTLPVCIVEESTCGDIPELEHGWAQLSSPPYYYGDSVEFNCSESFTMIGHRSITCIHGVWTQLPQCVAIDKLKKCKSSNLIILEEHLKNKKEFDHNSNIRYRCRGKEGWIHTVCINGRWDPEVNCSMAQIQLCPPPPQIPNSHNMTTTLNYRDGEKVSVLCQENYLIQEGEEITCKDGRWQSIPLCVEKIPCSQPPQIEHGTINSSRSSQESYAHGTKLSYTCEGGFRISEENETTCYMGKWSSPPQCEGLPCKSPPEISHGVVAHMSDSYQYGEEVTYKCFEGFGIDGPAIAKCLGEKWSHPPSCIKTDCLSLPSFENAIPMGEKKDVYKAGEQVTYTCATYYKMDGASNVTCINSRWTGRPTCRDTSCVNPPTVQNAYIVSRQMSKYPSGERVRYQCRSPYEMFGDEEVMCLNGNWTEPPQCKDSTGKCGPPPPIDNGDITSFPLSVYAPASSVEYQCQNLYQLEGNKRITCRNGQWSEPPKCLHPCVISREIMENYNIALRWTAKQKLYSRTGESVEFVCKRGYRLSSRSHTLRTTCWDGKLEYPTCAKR

T3: non-reduced CFHR1
T3 construct: also called CFHR1 (NON-REDUCED)
T3 chain: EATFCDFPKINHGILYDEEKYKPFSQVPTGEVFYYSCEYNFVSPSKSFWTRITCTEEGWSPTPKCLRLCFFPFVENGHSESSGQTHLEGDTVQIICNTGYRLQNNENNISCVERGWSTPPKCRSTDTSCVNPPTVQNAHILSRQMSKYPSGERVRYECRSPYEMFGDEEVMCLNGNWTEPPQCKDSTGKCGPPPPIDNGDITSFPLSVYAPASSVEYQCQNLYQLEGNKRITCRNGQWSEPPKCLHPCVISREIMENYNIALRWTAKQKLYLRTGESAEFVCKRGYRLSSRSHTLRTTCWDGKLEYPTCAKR

T4: non-reduced CFHR5
T4 construct: also called CFHR5 (NON-REDUCED)
T4 chain: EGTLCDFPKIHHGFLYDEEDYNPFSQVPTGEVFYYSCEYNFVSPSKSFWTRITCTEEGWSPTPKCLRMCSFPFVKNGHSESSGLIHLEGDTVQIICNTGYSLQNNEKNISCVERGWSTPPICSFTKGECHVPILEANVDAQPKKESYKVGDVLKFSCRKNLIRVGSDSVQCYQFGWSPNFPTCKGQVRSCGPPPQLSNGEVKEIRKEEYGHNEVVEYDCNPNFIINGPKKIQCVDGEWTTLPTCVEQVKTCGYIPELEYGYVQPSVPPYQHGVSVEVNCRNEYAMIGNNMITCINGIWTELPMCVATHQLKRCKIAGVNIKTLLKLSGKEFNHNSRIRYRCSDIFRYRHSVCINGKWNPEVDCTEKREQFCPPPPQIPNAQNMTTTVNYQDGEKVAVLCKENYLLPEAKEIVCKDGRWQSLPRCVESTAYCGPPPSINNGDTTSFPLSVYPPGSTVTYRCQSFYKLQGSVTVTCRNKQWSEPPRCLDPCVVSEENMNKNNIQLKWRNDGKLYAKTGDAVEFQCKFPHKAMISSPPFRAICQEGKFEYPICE

T5: non-reduced CFHR2
T5 construct: also called CFHR2 (NON-REDUCED)
T5 chain: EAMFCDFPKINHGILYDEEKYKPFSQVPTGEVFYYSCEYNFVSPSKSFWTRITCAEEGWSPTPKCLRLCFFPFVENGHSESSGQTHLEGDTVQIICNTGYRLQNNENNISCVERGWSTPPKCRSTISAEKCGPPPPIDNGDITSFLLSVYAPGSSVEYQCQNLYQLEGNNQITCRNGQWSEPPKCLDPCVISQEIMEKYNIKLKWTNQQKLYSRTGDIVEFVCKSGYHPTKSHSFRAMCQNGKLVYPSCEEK


Key:
Assay in all cases: ELISA, non-reduced antigen
non-reduced CFHR3 = molecular target: T1, non-reduced CFHR3
non-reduced CFH = molecular target: T2, non-reduced CFH
non-reduced CFHR1 = molecular target: T3, non-reduced CFHR1
non-reduced CFHR5 = molecular target: T4, non-reduced CFHR5
non-reduced CFHR4 = molecular target: T6, non-reduced CFHR4
T6 construct: not reduced; also called CFHR4 (NON-REDUCED)

non-reduced CFHR2 = molecular target: T5, non-reduced CFHR2

| binding result (non-reduced CFHR3) | fold change vs isotype at 1 ug/ml (non-reduced CFHR3) [fold] | fold change vs isotype at 1 ug/ml (non-reduced CFH) [fold] | fold change vs isotype at 1 ug/ml (non-reduced CFHR1) [fold] | binding result (non-reduced CFHR5) | fold change vs isotype at 1 ug/ml (non-reduced CFHR5) [fold] | fold change vs isotype at 1 ug/ml (non-reduced CFHR4) [fold] | fold change vs isotype at 1 ug/ml (non-reduced CFHR2) [fold] | Binder |
| --- | --- | --- | --- | --- | --- | --- | --- | --- |
| no binding (tested: 1 ug/ml) | 0.9 | 7.3 | 10.7 | no binding (tested: 1 ug/ml) | 0.9 | 0.9 | 4.3 | ATL4717 (antibody, human IgG1, kappa, V domains shown, Human IgG1; also called ATL0004717; ATL04717) VH: QVQLVESGGGMVQPGRSLRLSCAASGFTFSIYGMHWVRQAPGRGLEWVAVMSFDGKTKYYADSVKGRFTISRDNSKNTLYLQMNSLRRVDTAVYYCAKGGATAAVFDSWGQGTLVTVSS VL: not shown |
| no binding (tested: 1 ug/ml) | 1 | 10 | 8.4 | no binding (tested: 1 ug/ml) | 1 | 0.9 | 1.3 | ATL5170 (antibody, human IgG1, kappa, V domains shown, IgG1; also called ATL_0005170) VH: QVQLVESGGGVVQPGRSLRLSCAASGFTFSNYGMHWVRQAPGKGLEWVAVTSFDGKTKYYADSVKGRFTISRDNSKNTLYLQMNSLRAEDTAVYYCAKGGATAAVLDSWGQGTLVTVSS VL: not shown |
